Experimental data as given in patent publication US20130252821A1, “METHODS AND COMPOSITIONS FOR THE TREATMENT AND DIAGNOSIS OF DISEASES CHARACTERIZED BY VASCULAR LEAK, HYPOTENSION, OR A PROCOAGULANT STATE” (Beth Israel Deaconess Medical Center, Inc., priority 2005, published 2013).

What was measured:
HMVEC monolayers = test: Immunofluorescence of endothelial architecture (F-actin, VE-cadherin); assay type: cell-based, human; details: for reversal of Ang-2 induced thick actin stress fibers and paracellular gaps: Ang-2 100 ng/ml, inhibitor 10 μM, 5 hours
Procedure: HMVEC were grown to confluence on glass coverslips coated with 1% gelatin. The cells were fixed for 10 minutes in 4% paraformaldehyde in PBS, incubated for 5 min in 0.5% Triton X-100 in PBS. After blocking, the monolayers were processed for staining with anti-VE-cadherin monoclonal antibody (BD Pharmingen, San Diego, Calif.) and Alexa Fluoro 488 goat anti-mouse IgG, rhodamine phalloidin (Molecular Probe, Eugene, Oreg.) for F-actin staining and TOPRO-3-iodine (Molecular Probe) for nuclear staining. Fluorescence images were obtained using a Bio Rad MRC confocal fluorescence microscope. For human subject serum experiments, serum was diluted to 10% with EBM-2 and filtered with low protein binding PVDF membrane (0.22 μm, Millipore Corp) prior to application on endothelial cell monolayers.

[1] = test system: myosin light chain (MLC) phosphorylation in HMVECs; test: MLC phosphorylation assay (Western blot); assay type: cell-based, human; details: for effect on Ang-2-induced phosphorylation of MLC: inhibitor 10 μM
Procedure: After signal starvation with 0.25% FBS EBM-2 for 24 h, cells were treated with 100 ng/ml Ang-2 or vehicle for 0, 1, 3, and 6 hours. Phosphorylated myosin light chain (MLC-p) (phospho-serine 19) and GAPDH were detected by Western blot analysis. For human subject serum effects on HMVECs, serum was diluted to 5% with EBM-2 and filtered with low protein binding PVDF membrane (0.22 μm, Millipore Corp, Bedford, Mass.). Anti-MLC-phospho-serine-19 Ab was obtained from Abcam Inc.

HMVEC monolayer = test: FITC-albumin permeability assay; assay type: cell-based, human; details: Ang-2 400 ng/ml, 8 hours
Procedure: HMVEC monolayer permeability was determined with the use of FITC-labeled bovine serum albumin (Sigma) as described elsewhere (Tinsley et al., Am. J. Physiol Cell Physiol. 279: C1285-1289 (2000)). Coster Transwell membranes (Corning Inc. Corning, N.Y.) were coated with fibronectin and cells were grown until confluence. Vehicle or Ang-2 (400 ng/ml) with FITC-albumin (final 1 mg/ml) was added to the luminal chamber for 8 hours, and samples were taken from both the luminal and abluminal chamber for fluorometry analysis. The readings were converted with the use of a standard curve to albumin concentration. These concentrations were then used in the following equation to determine the permeability coefficient of albumin (Pa).
where [A] is abluminal concentration; t is time in seconds; A is area of membrane in cm2; V is volume of abluminal chamber; and [L] is luminal concentration. siRNA transfection of endothelial cells: HMVECs were seeded on 10 cm dishes for Western blot (or on 1% gelatin-coated coverslips for immunohistochemistry experiments) 24 hour before experiments. […] of validated, annealed small interfering RNA (siRNA) (Ambion, Inc. Austin Tex.) directed to human Tie-2 was transfected using silentFect Lipid reagent (Bio-Rad) according to manufacturer's instructions. Three days after transfection, cells were used for experiments. […]

RhoA = test: Rho activity pull-down assay; assay type: cell-based, human; details: Ang-2 100 ng/ml
Procedure: RhoA activity assay was performed and quantified using the RhoA activation assay kit according to the manufacturer's instruction (Cytoskeleton, Denver, Colo.). Lysates from control and Ang-2-treated cells containing equivalent protein concentrations were rotated for 60 minutes with 40 μl slurry of a GST-fusion protein composed of the Rho-binding domain of the specific RhoA effector rhotekin coupled to agarose beads. Beads were collected by centrifugation and washed three times with lysis buffer. Whole cell lysates from both control and Ang-2-treated cells were also run to determine baseline levels of total RhoA protein. Separated proteins were transferred to PVDF and immunoblotted with a monoclonal antibody to RhoA (Santa Cruz Biotechnology, Santa Cruz, Calif.).

Tie-2 = Tie-2 phosphorylation (immunoprecipitation and Western blot); assay type: cell-based, human; details: HMVECs stimulated with Ang-2 100 ng/ml
Procedure: 200 μg of total protein were incubated with anti-Tie2 antibody for 3 hours, followed by incubation with protein A sepharose (Zymed, San Francisco, Calif.) for 2 hours at 4° C. After washing the beads, proteins were eluted by heating in SDS-sample buffer and detected by Western blot analysis with Anti-phospho-tyrosine (clone 4G10, Upstate Cell Signaling Solutions) as described before.

healthy adult mice [2] = test: Evans blue permeability assay after systemic Ang-2; assay type: in vivo, mouse; details: Ang-2 10 μg i.p., 16 hours
Procedure: Mice were injected with 10 μg of Ang-2 or vehicle intraperitoneal (i.p.) and, after 16 hours, were anesthetized with Avertin (2,2,2-tribromoethanol). 2% Evans blue (50 μl) was then injected into the retro-orbital sinus. (In preliminary experiments with control mice, n=6, we confirmed that the retro-orbital sinus provided a route of intravascular injection that allowed near-100% delivery of Evans blue in a reproducible fashion.) 10 minutes after Evans blue injection, mice were sacrificed and perfused with PBS for 10 minutes through a cannula placed in the right ventricle. Blood and PBS were vented through an incision in the vena cava. […] Washout of intravascular contents was also confirmed histologically after 10 minutes PBS perfusion. After homogenization in 1.5 ml formamide, Evans blue was extracted by incubating the samples at 70° C. for 24 hours, and the concentration of Evans blue was estimated by dual-wavelength spectroscopy to correct for heme E620 nm (corrected)=E620 nm−(1.426*E740 nm+0.030).

healthy adult mice [3] = test: Lung wet-to-dry weight ratio; assay type: in vivo, mouse; details: Ang-2 treatment for 16 hours
Procedure: Lung wet weight (W) was determined immediately after removal of the right lung. Lung dry weight (D) was determined after the lung had been dried in an oven at 50° C. for 24 hours. The W/D ratio was calculated by dividing the wet weight by the dry weight.

healthy adult mice [4] = test: Lung histology after systemic Ang-2; assay type: in vivo, mouse; details: 3 hour after systemic Ang-2 administration
Source text: Lungs were harvested, fixed in 10% formalin, embedded in paraffin, sectioned, and stained with hematoxylin and eosin.

O=S(=O)(c1cccc2c(I)cccc12)N1CCCNCC1 [ML-7, reference compound]
reversal of Ang-2 induced thick actin stress fibers and paracellular gaps (HMVEC monolayers): partially reversed | effect on Ang-2-induced phosphorylation of MLC ([1]; Ang-2 100 ng/ml): partially inhibited

CC(C)=C[C@H](O)C1=C[C@@H](O)[C@@H]2O[C@@H]2C1=O [Panepoxydone]
effect on Ang-2 mediated MLC phosphorylation ([1]; panepoxydone added to EC monolayers): marked inhibition

C[C@@H](N)[C@H]1CC[C@H](C(=O)Nc2ccncc2)CC1 [Y27632, reference compound]
reversal of Ang-2 induced thick actin stress fibers and paracellular gaps (HMVEC monolayers): completely reversed | effect on Ang-2-induced phosphorylation of MLC ([1]; Ang-2 100 ng/ml): completely abolished

B1: Ang-2: Human recombinant angiopoietin-2 purchased from R&D systems; Tie-2 ligand (protein, listed as Homo sapiens)
chain: MWQIVFFTLSCDLVLAAAYNNFRKSMDSIGKKQYQVQHGSCSYTFLLPEMDNCRSSSSPYVSNAVQRDAPLEYDDSVQRLQVLENIMENNTQWLMKLENYIQDNMKKEMVEIQQNAVQNQTAVMIEIGTNLLNQTAEQTRKLTDVEAQVLNQTTRLELQLLEHSLSTNKLEKQILDQTSEINKLQDKNSFLEKKVLAMEDKHIIQLQSIKEEKDQLQVLVSKQNSIIEELEKKIVTATVNNSVLQKQQHDLMETVNNLLTMMSTSNSAKDPTVAKEEQISFRDCAEVFKSGHTTNGIYTLTFPNSTEEIKAYCDMEAGGGGWTIIQRREDGSVDFQRTWKEYKVGFGNPSGEYWLGNEFVSQLTNQQRYVLKIHLKDWEGNEAYSLYEHFYLSSEELNYRIHLKGLTGTAGKISSISQPGNDFSTKDGDNDKCICKCSQMLTGGWWFDACGPSNLNGMYYPQRQNTNKFNGIKWYYWKGSGYSLKATTMMIRPADF
actin stress fibers and intercellular gaps (HMVEC monolayers; recombinant human Ang-2 100 ng/ml alone, HMVECs): induced the formation of thick actin stress fibers and intercellular gaps | increase in permeability (Pa of FITC-albumin) compared with control (HMVEC monolayer): approximately 20% | MLC phosphorylation on stimulation with Ang-2 alone ([1]; Ang-2 100 ng/ml, serum-starved HMVECs): elevated at 3 hours and 6 hours | active form of RhoA (Rho-GTP) (RhoA): increased the active form of RhoA | time of peak Rho-GTP (RhoA): peaking between 30 minutes and 1 hour | effect on Tie-2 phosphorylation (Tie-2): inhibitory effect | extravasated Evans blue in intestines versus vehicle (healthy adult mice [2]): trend toward increased permeability | extravasated Evans blue in livers versus vehicle (healthy adult mice [2]): twofold increase | extravasated Evans blue in lungs versus vehicle (healthy adult mice [2]): threefold increase | lung wet/dry weight (W/D) ratio (healthy adult mice [3]): 6.13±0.03 | lung histology (healthy adult mice [4]): increase in congestion and early extravasation into the interstitium
